Test system: Tex-loxP-EG cells
Assay: Protein transduction: delivery of Cre recombinase read out by GFP expression
Type: cell-based, mouse
Conditions: 5 or 10 µM protein, 3 h, GFP measured 48 h after, FACS, three independent experiments
Procedure: To determine the protein-transduction activity of VPTLK and KLPVM, these peptides were added to the N-terminus of Cre DNA recombinase and the resulting CPP5-Cre fusion proteins were added separately to the culture medium of Tex-loxP-EG cells, which are engineered to express GFP through Cre-dependent excision of a chromosomal lox P site. This method was developed by S. Dowdy’s group to determine the protein-transduction activity of TAT peptide.
First, cells were cultured for 3 h in serum-free medium in the presence of 5 or 10 µM Cre, TAT-Cre, KLPVM-Cre, or VPTLK-Cre. GFP expression was measured 48 h after the incubation with the CPP-Cre proteins. […]
Figure 5 Protein-Transduction activity (PTDs) of VPTLK and KLPVM determined by the delivery of Cre recombinase into cells. a. […] The delivery of Cre into Tex-lox P-EG cells was evaluated by GFP expression as previously reported. GFP expression was analyzed 48 h after the incubation of cells with Cre proteins. b and c. […] Mean GFP fluorescence intensity of Tex-loxP-EG cells incubated with 5 or 10 μM Cre recombinant proteins under serum-free conditions. […]
Tex lox P EG cells were established from thymoma cells of p53-deficient mice, which were genetically engineered to have a lox P site flanking the EGFP gene. […] Expression of GFP was analyzed by fluorescence microscopy and by FACS [11].

B1: Cre: His-tagged recombinant Cre DNA recombinase without TAT or CPP5s (protein, UniProt P06956 1-343, looked up)
Recombinase cre: MSNLLTVHQNLPALPVDATSDEVRKNLMDMFRDRQAFSEHTWKMLLSVCRSWAAWCKLNNRKWFPAEPEDVRDYLLYLQARGLAVKTIQQHLGQLNMLHRRSGLPRPSDSNAVSLVMRRIRKENVDAGERAKQALAFERTDFDQVRSLMENSDRCQDIRNLAFLGIAYNTLLRIAEIARIRVKDISRTDGGRMLIHIGRTKTLVSTAGVEKALSLGVTKLVERWISVSGVADDPNNYLFCRVRKNGVAAPSATSQLSTRALEGIFEATHRLIYGAKDDSGQRYLAWSGHSARVGAARDMARAGVSIPEIMQAGGWTNVNIVMNYIRNLDSETGAMVRLLEDGD
modifications: His tag
notes: His-tagged recombinant Cre DNA recombinase without TAT or CPP5s
With B1 the “GFP expression induced by Cre protein, serum-free medium” value was “did not”.

Source: paper PMC3045100, “Cell-Penetrating Penta-Peptides (CPP5s): Measurement of Cell Entry and Protein-Transduction Activity” (Pharmaceuticals, 2010)
